Laboratory results taken from patent publication US20240043859A1, “HERBICIDE-RESISTANT PROTEIN, AND GENE AND USE THEREOF” (QINGDAO KINGAGROOT CHEMICAL COMPOUND CO., LTD., priority 2020, published 2024).
Entries after “also recorded” stand apart in the source; their conditions may differ.

What was measured:
[1] = type: cell-based, Escherichia coli
Procedure: (§1) To transform the plasmids to be tested, an AAD12-expressing plasmid and a blank control plasmid pET15b were respectively transformed into the protein expression E. coli BL21(DE3) strains. A monoclone was selected and inoculated in a 10 ml centrifuge tube with 3 ml LB medium, and cultivated at 37° C., 200 rpm for 6-8 hours. […] The temperature was switched to 28° C. and the cultivation continued overnight. In the next morning, 200 μL of each bacteria solution was taken and centrifuged to precipitate thallus, 180 μL of the supernatant was taken and added in a 96-well plate, and 20 μL of borate buffer of pH 10 was added. Then the mixture was added with 2 μL of 8% potassium ferricyanide and mixed well, followed by adding 2 μL of 2% 4-aminoantipyrine, and placed at room temperature for 5 min to observe the color and detect the A510 value. […]

[2] = Chromogenic reaction of degrading herbicides in bacteria: triclopyr; type: cell-based, Escherichia coli; settings: recombinant E. coli expressing the gene
Procedure: as §1

[3] = Chromogenic reaction of degrading herbicides in bacteria: 2,4-D; type: cell-based, Escherichia coli; settings: recombinant E. coli expressing the gene, 2,4-D added to the medium, red = phenols
Method in brief: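 E. coli BL21(DE3) carrying AAD12 or empty pET15b was induced with 0.1 mM IPTG plus 2 mM α-ketoglutarate and given 0.5 mM 2,4-D, then grown overnight at 28 °C. Supernatant was treated with pH 10 borate, potassium ferricyanide and 4-aminoantipyrine for 5 min at room temperature; red colour read at A510.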

Arabidopsis thaliana = assay: Herbicide resistance of transgenic Arabidopsis thaliana seedlings on plate medium (root growth); type: in vivo; settings: Arabidopsis overexpressing the gene
Procedure: Expression in Arabidopsis thaliana was regulated by its AtUbi10 Arabidopsis thaliana ubiquitin promoter and the MAS (mannopine synthase) terminator. Hygromycin resistance gene (HygR=hpt) served as the selection marker.
Preparation of Agrobacterium infection solution: An activated Agrobacterium (GV3101) monoclone was picked and inoculated in 30 ml YEP liquid medium [yeast powder 10 g/L, tryptone 10 g/L, NaCl 5 g/L, 25 mg/L Rifampicin and 50 mg/L Kanamycin], shaking-cultured at 200 rmp/min, 28° C. overnight until the OD600 was about 1.0-1.5, then centrifuged at 6000 rmp/min for 10 min to collect the bacteria, and the supernatant was discarded. Arabidopsis thaliana infection solution (sucrose 50 g/L, Silwet L-77 300 μL/L, no need to adjust pH) was used to resuspend the cells to OD600=0.8 for later use.
Genetic transformation of Arabidopsis thaliana by flower dipping: Before transformation of Arabidopsis thaliana plants, attentions were paid to whether the plants were growing well, the inflorescences were abundant, and no stress response occurred. The first transformation was performed when plants were about 20 cm high. Plants could be properly watered if the soil was dry. The grown siliques were cut off with scissors the day before transformation. The inflorescences of the plants to be transformed were soaked in the above-mentioned Agrobacterium solution for 30 seconds to 1 minute, which was stirred gently during the period. And a layer of liquid film should appear on the infiltrated plant. The transformed plants were cultured in a dark environment for 24 hours, and then taken out and grown in a normal light environment. A second transformation could be performed in the same way a week later.
Seeds were treated with disinfectant for 5 min, washed with sterile water for 5 times and then one part was spread on MS transgenic screening medium (containing 30 μg/mL hygromycin, 100 μg/mL carbenicillin) to screen transgenic seedlings, and the other part was spread on MS medicated medium [containing 250 μg/mL Cefotaxime sodium and 0.3 μM 2,4-D] to screen herbicide-resistant seedlings at mean time. The petri dish spread with seeds was placed at 4° C. for vernalization for 3 days, and taken out to a illumination incubator for cultivation (temperature of 22° C., 16 hours of light, 8 hours of darkness, light intensity of 100-150 μmol/m^2/s, humidity of 75%). After one week, it was observed that the roots of the wild-type control seedlings were not elongated and their growth was inhibited, while the transgenic seedlings had normal root growth, showing drug resistance. The transgenic positive seedlings and herbicide-resistant seedlings were photographed and transplanted into small pots filled with soil for cultivation.
The transgenic lines with the nine vectors, pQY2309, pQY2310, pQY2311, pQY2312, pQY2313, pQY2314, pQY2315, pQY2316 and pQY2317, overexpressing AAD gene in the T2 generation were further tested on plate medium for their resistance to 2,4-D, 2,4-DB sodium and MCPA herbicide. Two events were tested for each transformant.

| Molecule | Chromogenic reaction of degrading herbicides in bacteria: MCPA [1] | Chromogenic reaction of degrading herbicides in bacteria: Triclopyr [2] | Chromogenic reaction of degrading herbicides in bacteria: 2,4-D [3] | also measured |
| --- | --- | --- | --- | --- |
| QYD58: AAD-like enzyme, SEQ ID NO. 115 (protein, Synthetic polypeptide, QYD58, D58) MARTFDIEPLAGTTFGAVVRGMKVAILDDAGWRDLYAAWLKYALLVFPGQHLKRDEQIAFAKRFGALEFEMAALSNVKSDGTLRQEKDNDDMMKILKGNMGWHADSTYMPVQAKGAVFSAEIVPGAGGQTGFADMRAAYDALDAGRKAKVERLAAHHSLHYSQSKLGHQTKKQDGEYSGYGLHDGPVPLRPLVKTHPETGRKSLLIGRHAHNIPGMDKAESERLLQELVDFACQPPRVYHHDWTAGDAVVWDNRCLLHQATPWDMTQPRVMWHSRIAGDPRSEAALGVTAVSAAASG | Yes | Yes | Yes | Chromogenic reaction of degrading herbicides in bacteria: Triclopyr ([2]; listed as D58): slight degradation; Chromogenic reaction of degrading herbicides in bacteria: 2,4-D ([3]; listed as D58): could degrade 2,4-D; also recorded: capable of degrading 2,4-D |
| QYD72: AAD-like enzyme, SEQ ID NO. 143 (protein, Synthetic polypeptide, QYD72, D72) MAADAPFVVKPLPASFGAVVTGLALADLDEAAFAALYRTWLDYALLIFPGQHLDRDQQIAFARRFGPLEFDIAPISNVRSDGSVRPDDDADDVVKVLKGNMGWHCDSTYMPVQAKGAVFTAHVVPEDGGETDWADMRAAYDALDPAMRRRIEGLSAYHSLRHSQGKLGHVHKPGSAYSGYGMTVEAPPLRPLVKVHPETSRKTLMVGRHAYGIPGFEDAESERLLDELADFACRPPRTWRHSWTPGDAVIWDNRALMHRACPWDMTRPRVMYHSRLAGDPVAEFAAPA | Yes | Yes | Yes | Chromogenic reaction of degrading herbicides in bacteria: Triclopyr ([2]; listed as D72): slight degradation; Chromogenic reaction of degrading herbicides in bacteria: 2,4-D ([3]; listed as D72): could degrade 2,4-D; also recorded: capable of degrading 2,4-D |
| QYD50: AAD-like enzyme, SEQ ID NO. 99 (protein, Synthetic polypeptide, QYD50, D50) MEEPDMARTLGIEPLAGTTFGAVVKGVKVTALDDATWRELHAAWLQYALLIFPDQHLKRAEQIAFARRFGPLEFEMAAISNVKADGSLRIEADNDDVMKILKGNMGWHCDSTYMPVQAKGAVFSAEVVPSIGGRTGFADMRAAWDALDDALKARIETLSAYHSLHHSQSKLGHQTNKRDGEYSGYGLHDGPVPLRQLVKVHPETGRKSLLIGRHAHNIPGMDKADSERLLQELVDFACQPPRIYHHDWAAGDAVVWDNRCLLHQATPWDMTQPRVMWHSRIAGDPRSEAALGGSAVSAAASG | Yes | – | Yes | Chromogenic reaction of degrading herbicides in bacteria: 2,4-D ([3]; listed as D50): could degrade 2,4-D; also recorded: capable of degrading 2,4-D; Resistance of transgenic Arabidopsis thaliana: 2,4-D (Arabidopsis thaliana): Yes; Resistance of transgenic Arabidopsis thaliana: MCPA (Arabidopsis thaliana): Yes |
| QYD74: AAD-like enzyme, SEQ ID NO. 147 (protein, Synthetic polypeptide, QYD74, D74) MARAFDIEPLDATFGAIITGVKLAALDDAVWRDLYAAWLEYALLIFPSQNLGRDEQIAFAKRFGALEFELAPISNVNSDGTLITDPDNDILKVLKGNMGWHSDSTYMPIQAKGAVFSARVVPKSGGSTGWADMRAAYDALDDNLKRKVERLAAHHSLRYSQAKLGHFPKKHSAYSGYGFHDGPEPLRPLVKTHPETGRKSLLIGRHAHNIPGMSAEESERFLQELVDFACRPPRVYHHEWTAGDVAVWDNRCLLHQATPWDMSEPRVMWHSRIAGDPTTESALA | Yes | Yes | Yes | Chromogenic reaction of degrading herbicides in bacteria: Triclopyr ([2]; listed as D74): slight degradation; Chromogenic reaction of degrading herbicides in bacteria: 2,4-D ([3]; listed as D74): could degrade 2,4-D; also recorded: capable of degrading 2,4-D |
| QYD34: AAD-like enzyme, SEQ ID NO. 67 (protein, Synthetic polypeptide, QYD34, D34) MSMQVIPLDATFGATVTGLKLSELDEAVFAEIYDHWLRYSLLVFPGQNLDNEQQVTFAKRFGALEIDLVELSNVKDDGSLRTAPDDDRIKILKGNMGWHHDSTYMPVQAKGAVFRADTVPSHGGETGWADMCAAYDALGDAMRNRIEGLSAHHSLTYSQGKAGFKHKDKDSEYNGYGLDQDGAPLRPLVKTHAETGRKTLTIGRHAHAVPGLSQADSEALLTELVDFACQPPRIYHHGWQPGDVVVWDNRCLMHQACPWDMAERRVMFHSRLAGDPEHEFAAPN | NO | – | Yes | Chromogenic reaction of degrading herbicides in bacteria: 2,4-D ([3]; listed as D34): red reactions; Resistance of transgenic Arabidopsis thaliana: 2,4-D (Arabidopsis thaliana): Yes |
| QYD76: AAD-like enzyme, SEQ ID NO. 151 (protein, Synthetic polypeptide, QYD76, D76) MARMFDIAPLDATFGAVVTGVKVTRIDDATWRDLHAAWLEYALLIFPGQFLSRAEQIAFAKRFGPLEFEMAPISNVKADGTIRIEADNDDVVKVLKGNMGWHADSTYMPVQAKGAVFSAEVVPGEGGRTGWADMRAAYDALDAARRVRVESLTAYHSLYYSQAKLGHQPKRGSDYSGYGFHDGPVPRRPLVKVHPETGRKSLLIGRHAHNIPGMDVAESTQFLESLVDFACQPPRIYHHQWTAGDAVVWDNRCLLHRATPWDMTKPRVMWHSRIAGDPVSEASLG | Yes | Yes | Yes | Chromogenic reaction of degrading herbicides in bacteria: Triclopyr ([2]; listed as D76): slight degradation; Chromogenic reaction of degrading herbicides in bacteria: 2,4-D ([3]; listed as D76): could degrade 2,4-D; also recorded: capable of degrading 2,4-D |
| QYD73: AAD-like enzyme, SEQ ID NO. 145 (protein, Synthetic polypeptide, QYD73, D73) MARTFDVQPLDATFGAVISGVKLAALDDETWRELYATWLQYALLVFPGQHLSRDQQIAFARRFGPLEFEIIALSNVKSDGTIRSEVENDDVIKVLKGNMGWHADSTYMPVQAKGAVFTAEVVPSVGGQTGWADMRAAYDALDGATRQKVEQLSAYHSLHYSQSKLGHQHKPGSAYSGYGFHDGPVPLRPLVKTHPETGRKSLLIGRHAHNIPGMDKDESARFLEDLVASACQPPRIYHHTWAAGDAVVWDNRCLLHQATPWDMTQPRVMWHSRIAGDPLSEAALG | Yes | Yes | Yes | Chromogenic reaction of degrading herbicides in bacteria: Triclopyr ([2]; listed as D73): slight degradation; Chromogenic reaction of degrading herbicides in bacteria: 2,4-D ([3]; listed as D73): could degrade 2,4-D; also recorded: capable of degrading 2,4-D |
